Patent US20020081623A1

Target: RANTES/eotaxin binding sites on guinea-pig eosinophils (guinea-pig)
Experiment: binding of 0.1 nM 125I-RANTES to 4x10^5 guinea-pig eosinophils without competitor

human RANTES (from UniProt P13501 24-91) (ligand)
B0: 14.4%
